According to patent US20190300620A1:

Target: CD46 on target cells (LNCAP-C4-B2 and other prostate cancer cell lines) (UniProt P15529)
Assay: cell-based or functional assay

Sequence of UniProt P15529 (P15529 35-392 limits assumed): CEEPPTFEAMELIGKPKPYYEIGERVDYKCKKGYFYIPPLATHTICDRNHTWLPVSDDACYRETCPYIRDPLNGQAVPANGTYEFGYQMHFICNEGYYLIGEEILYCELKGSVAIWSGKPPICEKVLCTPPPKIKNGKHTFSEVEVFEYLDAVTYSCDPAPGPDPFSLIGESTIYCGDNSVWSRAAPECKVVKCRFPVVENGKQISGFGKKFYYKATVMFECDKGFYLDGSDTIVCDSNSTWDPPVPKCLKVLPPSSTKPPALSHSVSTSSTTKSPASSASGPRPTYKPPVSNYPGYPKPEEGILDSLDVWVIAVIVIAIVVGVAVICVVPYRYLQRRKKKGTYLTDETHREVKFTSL

For “anti-CD46 CAR (YS5FL-scFv in a second generation lentivirus CAR containing CD28 and CD3zeta), on transduced human T cells”, the killing rate of LNCAP-C4-B2 target cells (real time cytotoxicity assay, impedance, effector:target 10:1) was over 99%.
